Data as given in paper PMC4917298 (Nature immunology, 2016).

Molecular target: S6K1(WT)-HA (mouse, UniProt Q8BSK8-2 1-502)
Assay: co-IP

Chain of S6K1(WT)-HA (Q8BSK8 24-525): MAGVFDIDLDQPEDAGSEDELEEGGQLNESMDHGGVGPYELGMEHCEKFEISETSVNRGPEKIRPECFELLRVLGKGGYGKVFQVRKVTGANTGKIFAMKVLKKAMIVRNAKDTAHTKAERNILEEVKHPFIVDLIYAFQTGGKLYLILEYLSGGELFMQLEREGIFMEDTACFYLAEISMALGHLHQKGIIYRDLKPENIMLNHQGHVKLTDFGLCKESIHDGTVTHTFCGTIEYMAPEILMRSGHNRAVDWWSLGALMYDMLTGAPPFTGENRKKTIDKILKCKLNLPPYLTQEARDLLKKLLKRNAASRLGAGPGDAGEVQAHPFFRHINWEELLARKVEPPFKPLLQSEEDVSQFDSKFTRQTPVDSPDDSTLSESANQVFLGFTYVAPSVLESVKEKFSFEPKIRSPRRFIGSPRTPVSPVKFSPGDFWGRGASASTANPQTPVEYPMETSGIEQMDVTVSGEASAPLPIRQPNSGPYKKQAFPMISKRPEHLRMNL

B1: phosphorylated STING-Flag (phosphorylated by TBK1) (natural protein, mouse, UniProt Q3TBT3 1-378, looked up)
chain: MPYSNLHPAIPRPRGHRSKYVALIFLVASLMILWVAKDPPNHTLKYLALHLASHELGLLLKNLCCLAEELCHVQSRYQGSYWKAVRACLGCPIHCMAMILLSSYFYFLQNTADIYLSWMFGLLVLYKSLSMLLGLQSLTPAEVSAVCEEKKLNVAHGLAWSYYIGYLRLILPGLQARIRMFNQLHNNMLSGAGSRRLYILFPLDCGVPDNLSVVDPNIRFRDMLPQQNIDRAGIKNRVYSNSVYEILENGQPAGVCILEYATPLQTLFAMSQDAKAGFSREDRLEQAKLFCRTLEEILEDVPESRNNCRLIVYQEPTDGNSFSLSQEVLRHIRQEEKEEVTMNAPMTSVAPPPSVLSQEPRLLISGMDQPLPLRTDLI
modifications: phosphorylated by TBK1 (slower mobility, removed by calf intestine phosphatase); sites not stated
Does B1 bind?
Result: binds
